In assay [1] the target is T1, human PD-L1/His fusion protein (human, UniProt Q9NZQ7 19-239). The experiment in a line: RBA ELISA: coated PD-L1/His, competitor biotinylated PD-1/Fc. On the procedure: Anti-PD-L1 scFv supernatants were tested for ability to block PD-L1/PD-1 interaction. […] The mixtures were added to individual wells and incubated at room temperature for 30 minutes. […] Bound signal was developed by Streptavidin-HRP (Cat. No. S2468, Sigma) and read by a plate reader at a wavelength of 450 nm. A low signal, as with the positive control, indicated blocking activity.
For orientation: ELISA stands for enzyme-linked immunosorbent assay.

For assay [2], the target named is T1, human PD-L1/His fusion protein. The experiment in a line: BLI Octet RED96, single concentration of human PD-L1-his. The protocol:
Briefly, antibodies were characterized for affinities and binding kinetics by biolayer interferometry (BLI) using an Octet® RED96 sensor device (Pall ForteBio LLC). Antibodies were captured by anti-hIgG Fc Capture (AHC) Biosensors (Pall) at a concentration of 100 nM for 30 seconds. Sensors were then dipped into running buffer (1×, pH7.2, PBS, 0.05% Tween 20, 0.1% BSA) for 60 seconds to check baseline. Binding was measured by dipping sensors into a single concentration of recombinant human PD-L1-his protein. Dissociation was followed by dipping sensors into running buffer for 1200 seconds. The association and dissociation curves were fitted to a 1:1 Langmuir binding model using the manufacturer's data analysis software (ForteBio Data Analysis software, Pall ForteBio LLC).

Assay [3] concerns the target T2, cynomolgus (cyno) PD-L1/His fusion protein (cynomolgus, UniProt G7PSE7 19-239).
T2 construct: also called cynomolgus PD-L1; not shown: His tag
Put plainly: ELISA, scFv supernatant on cynomolgus PD-L1.

Assay [4] addresses human PD-L1/Fc Fusion Protein (human). The experiment in a line: ELISA, scFv supernatant on coated human PD-L1/Fc. On the procedure: Two hundred (200) single bacterial clones from each group of the third panning round were isolated and grown in culture to express a single scFv monoclonal antibodies (mAbs). The scFv mAbs were expressed in the bacterial culture supernatants, which were primarily screened by ELISA. […] 20 ng of human PD-L1/Fc protein in 100 μL PBS, pH 7.4, were directly coated in each well of a 96-well plate. An HRP-linked anti-c-myc antibody (Cat. No. Ab1261, Abcam) and TMB reagent were used to detect and develop the ELISA signal, which was read using a plate reader (SpectraMax® Plus 384; Molecular Devices) at a wavelength of 450 nm.

Assay [5] has as its target T3, human PD-L1 on the cell surface (CHO-K1 cells stably expressing human PD-L1) (human, UniProt Q9NZQ7 19-290).
T3 construct: whole, on cells; Also used here for PD-L1 on the monocyte-derived dendritic cells of the MLR assay (functional rows); also called CHO-K1/PD-L1; CHOK1-PD-L1
Put plainly: FACS, scFv-phage on CHO-K1/PD-L1 cells. The protocol:
After characterization of ability to bind PD-L1 in ELISA and RBA ELISA, the PD-L1-binding positive scFv clones were sequenced. […] Briefly, 2×10⁵ cells of the CHO-K1/PD-L1 cell line stably expressing huPD-L1 described above were added to round-bottom wells of a 96-well plate (Cat. No. 3799, Corning). A phage supernatant from an overnight culture that had been rescued by hyper phage was added. The mixture of CHO-K1/PD-L1 cells and phage supernatant in each well was diluted with 50 μl of FACS buffer (PBS with 2% FBS). The anti-PD-L1 scFv-phages were detected with murine anti-M13 phage antibody (Cat. No. 11973-MM05, Sino biological) and then with Donkey anti-Mouse IgG (H+L) Highly Cross-Adsorbed, Alexa Fluor® 488 conjugate, secondary antibody (Cat. No. A21202, Invitrogen). Cell fluorescence was monitored using a flow cytometer.
(In general: Flow cytometry measures light scatter and fluorescence of single cells or particles in a stream.)

The target of assay [6] is T4, human TGFβ2 (human, UniProt P61812 303-414).
T4 construct: also called TGFβ isoform 2; TGFβ2 (Cat. No. CJ79, Novoprotein)
T4 sequence (looked up): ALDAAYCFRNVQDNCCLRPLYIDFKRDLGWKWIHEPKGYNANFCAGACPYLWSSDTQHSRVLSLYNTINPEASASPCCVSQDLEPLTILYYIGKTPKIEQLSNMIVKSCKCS
Put plainly: ELISA: human TGFβ2 coated (1 µg/ml), binding protein titrated 0.0006-10 nM, anti-human IgG Fc-HRP, OD450. The protocol:
(§1) Accordingly, each of the wells of the ELISA microplates provided a reaction mixture to test the ability of a particular binding protein at a particular concentration to bind to a particular TGFβ isoform. […] Plates were washed three times in washing buffer (PBS containing 0.05% Tween 20) and blocked for 1 hour at 37° C. with 200 μl per well of blocking buffer (1% BSA in PBS containing 0.05% Tween 20). […] The wells containing the various binding mixtures were incubated at 37° C. for 1 hour to permit binding to TGFβ protein on the surface of the wells. Thereafter, the wells were washed four times with washing buffer, and anti-human IgG Fc HRP (Sigma, Catalog No. A0170) was diluted 1:10000 and added to the wells at 100 μl per well to detect binding protein that was bound to TGFβ protein present on the surface of a well. The plates were incubated for 1 hour at 37° C. and washed four times with washing buffer. 100 μl of tetramethylbenzidine (TMB) chromogenic solution were added per well. Following color development, the reaction was stopped with 1 N HCl, and absorbance at 450 nm (OD450) was measured on a VARIOSKAN™ LUX microplate reader (Thermo Scientific™).

The target in assay [7] is T5, biotinylated human PD-L1 protein (ACROBiosystems, H82E5) (human, UniProt Q9NZQ7 19-238, biotinylated (site not stated)).
T5 construct: also called biotinylated PD-L1
The experiment in a line: dual-binding ELISA: human TGFβ2 coated, 5 nM binding protein bound to it, biotinylated human PD-L1 titrated 0.0006-10 nM (axis labelled Ab (nM)), streptavidin-HRP, OD450; the EC50 is of the titrated PD-L1. The protocol:
(§2) Briefly, ELISA plates were incubated overnight at 4° C. with 100 μl of a human TGFβ isoform diluted in PBS buffer, pH 7.4, at 1 μg/ml, to allow the human TGFβ isoform to coat (adsorb to) the surface of the wells. Plates were washed three times in washing buffer (PBS containing 0.05% Tween 20) and blocked for 1 hour at 37° C. with 200 μl per well blocking buffer (1% BSA in PBS containing 0.05% Tween 20). […] The wells were washed four times with washing buffer, and Streptavidin-HRP (Merck, RABHRP3) was diluted 1:10000 and added to the wells at 100 μl per well. The plates were incubated for 1 hour at 37° C. and washed four times in washing buffer. 100 μl of tetramethylbenzidine (TMB) chromogenic solution were added per well.

The target in assay [8] is T1, human PD-L1/His fusion protein. The experiment in a line: BLI Octet Red, binding protein on AHC sensor, PD-L1-his in solution. The protocol:
Sensors were then dipped into running buffer (1×pH 7.2 PBS, 0.05% Tween 20, 0.1% BSA) for 60 seconds to check baseline. Binding was measured by dipping sensors into a series diluted concentration of recombinant human PD-L1-his protein. Dissociation was followed by dipping sensors into running buffer for 1200 seconds. The association and dissociation curves were fitted to a 1:1 Langmuir binding model using ForteBio Data Analysis software (Pall). The equilibrium dissociation constant KD (M) of the reaction between antibodies and related target proteins was then calculated from the kinetic rate constants using the formula KD=koff/kₒₙ.
In general terms: BLI is a label-free optical method that tracks binding on a fibre tip over time.

The target of assay [9] is T5, biotinylated human PD-L1 protein …. Put plainly: dual-binding ELISA: human TGFβ3 coated, 5 nM binding protein bound to it, biotinylated human PD-L1 titrated 0.0006-10 nM (axis labelled Ab (nM)), streptavidin-HRP, OD450; the EC50 is of the titrated PD-L1. On the procedure:
as §2

Assay [10] concerns the target T6, human TGFβ1 (human, UniProt P01137 279-390).
T6 construct: also called TGFβ isoform 1; TGFβ1 (Cat. No. CA59, Novoprotein)
The experiment in a line: ELISA: human TGFβ1 coated (1 µg/ml), binding protein titrated 0.0006-10 nM, anti-human IgG Fc-HRP, OD450. On the procedure: as §1

The term koff denotes a measure of how fast the partners let go of each other. A high value points to fast dissociation. Usually EC50 stands for the midpoint of the concentration-response curve. The term Kd denotes a measure of binding affinity in units of concentration. Read a low Kd as higher affinity. What is called kon is a measure of how fast the partners come together. The low end stands for slow association, the high end for fast association. For orientation: EC50 (read off the curve) means the concentration giving half of the maximal effect. A high value points to weaker potency.

T5 sequence (Q9NZQ7 19-238 limits assumed): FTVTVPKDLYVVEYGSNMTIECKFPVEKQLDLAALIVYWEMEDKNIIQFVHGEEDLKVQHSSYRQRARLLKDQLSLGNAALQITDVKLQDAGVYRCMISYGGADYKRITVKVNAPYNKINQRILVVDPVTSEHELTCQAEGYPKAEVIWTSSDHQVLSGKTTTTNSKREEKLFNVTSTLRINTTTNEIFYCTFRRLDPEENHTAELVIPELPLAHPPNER
T2 sequence (G7PSE7 entry or part of it): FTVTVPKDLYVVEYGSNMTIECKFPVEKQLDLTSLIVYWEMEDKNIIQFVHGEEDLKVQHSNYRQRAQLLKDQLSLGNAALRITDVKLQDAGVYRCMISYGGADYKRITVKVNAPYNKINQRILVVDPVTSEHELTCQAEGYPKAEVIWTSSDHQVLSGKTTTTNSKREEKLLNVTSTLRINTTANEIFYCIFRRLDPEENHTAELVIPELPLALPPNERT
T3 sequence (Q9NZQ7 19-290): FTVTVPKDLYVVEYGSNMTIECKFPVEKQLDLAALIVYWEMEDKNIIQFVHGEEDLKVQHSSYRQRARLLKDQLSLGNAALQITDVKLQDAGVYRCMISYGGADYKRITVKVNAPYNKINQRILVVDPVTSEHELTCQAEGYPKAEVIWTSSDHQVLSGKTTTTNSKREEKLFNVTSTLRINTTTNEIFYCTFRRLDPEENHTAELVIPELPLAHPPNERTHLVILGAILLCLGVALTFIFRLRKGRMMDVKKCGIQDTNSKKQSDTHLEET
T1 sequence (Q9NZQ7 19-239 limits assumed): as the sequence (G7PSE7 entry or part of it) above, with T33A, S34A, N62S, Q68R, R82Q, L173F, A185T, I192T, L215H counted along it
T6 sequence (P01137 279-390 limits assumed): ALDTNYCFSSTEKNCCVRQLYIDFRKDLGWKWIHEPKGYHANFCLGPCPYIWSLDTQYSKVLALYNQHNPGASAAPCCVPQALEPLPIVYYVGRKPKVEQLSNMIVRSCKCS
Sequence of human PD-L1/Fc Fusion Protein (human) (chain, as listed by the source limits assumed): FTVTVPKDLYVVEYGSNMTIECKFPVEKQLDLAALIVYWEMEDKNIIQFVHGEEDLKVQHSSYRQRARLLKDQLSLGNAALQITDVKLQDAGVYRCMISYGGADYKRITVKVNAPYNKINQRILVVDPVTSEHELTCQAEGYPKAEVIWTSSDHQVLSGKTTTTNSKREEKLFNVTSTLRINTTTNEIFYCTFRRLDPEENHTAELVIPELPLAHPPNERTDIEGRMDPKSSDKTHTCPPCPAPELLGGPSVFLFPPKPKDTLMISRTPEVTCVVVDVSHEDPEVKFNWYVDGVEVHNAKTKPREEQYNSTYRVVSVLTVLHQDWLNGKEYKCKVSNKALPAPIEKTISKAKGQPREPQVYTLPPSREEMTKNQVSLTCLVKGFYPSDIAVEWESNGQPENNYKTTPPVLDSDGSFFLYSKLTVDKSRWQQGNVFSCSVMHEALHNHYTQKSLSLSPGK

B1: EM0005-mAb86 scFv (scFv)
scFv: QVQLQQSGAELVRPGSSVKMSCKTSGYTFTTYGINWVKQRPGQGLEWIGYIYIGNGYTEYNEKFKGKATLTSDPSSRTAYMQLSSLTSEDSAIYFCARDLMVIAPKTMDYWGQGTSVTVSSGGGGSGGGGSGGGGSDIQMNQSHKFMSTSVGDRVSITCKASQDVGTAVAWYQQKPGQSPKLLIYWASTRHTGVPDRFTGGGSGTDFTLTISNVQSEDLADYFCQQYSSYPYTFGGGTKLEMK
notes: Tested as bacterial culture supernatant (detected with anti-c-myc antibody; tags of the pCAN phagemid not spelled out for library clones) and as scFv-displaying phage in FACS; also called 3A3
Regarding B1, in [1], the “RBA (% inhibition)” value amounted to 100%. Also, the koff in [2] was 0.000197 s⁻¹. The EC50 in assay [3] was 4 nM; in assay [4], 1.19 nM. Besides, in [5], the “Binding to CHOK1-PD-L1 (X Geo Mean)” value was determined as 27.6.

B2: EM0005-mAb90 scFv (scFv)
scFv: QVQLKQSGAELVRPGSSVKMSCKTSGYTFTSHSINWVKQRPGQGLEWIGYMYIGNGYTEYNEKFKGKATLTSDTSSTTAYMQLSSLTSEDSAIYFCAKITPVVAPYVMDYWGQGTSVTVSSGGGGSGGGGSGGGGSDIVMTQTHKFMSTSVGDRVSITCKASQDVGTAVAWYQQKPGQSPKLLIYWASTRHTGVPDRFTGSGSGTDFTLTISNVQSEDLADYFCQQYSSYPYTFGGGTKLELK
notes: Tested as bacterial culture supernatant and as scFv-displaying phage in FACS; tags of the pCAN phagemid not spelled out for library clones; also called 6C11
Take B2: the “RBA (% inhibition)” value in assay [1] is 100%. Further, the koff in assay [2] turned out to be 0.000232 s⁻¹. In assay [3], this molecule showed a 50% effective concentration (EC50) of 4 nM. For the same molecule, the “Binding to CHOK1-PD-L1 (X Geo Mean)” value in assay [5] was 36.6.

B3: EM0005-mAb87 scFv (scFv)
scFv: EVQLQQSGPELVKPGASVKISCKASGYSFTDYYINWVKQSPEKSLEWIGETIPNTGGTTYNQKFKAKATLTVDKSSSTAYMQLKSLTSEDSAVYYCARYQSGSPFAYWGQGTPVTVSSGGGGSGGGGSGGGGSDIVMTQSQKFMSTTVGDRVSITCKASQNVGTAVAWYQQKPGQSPKLLIYSASNRYTGVPDRFTGSGSGTDFTLTISNMQSEDLADYFCQQHYSTPYTFGGGTKLEIK
notes: Tested as bacterial culture supernatant and as scFv-displaying phage in FACS; tags of the pCAN phagemid not spelled out for library clones; also called 4E8
Regarding B3, the “RBA (% inhibition)” value in [1] stood at 99.8%. For the same molecule, the off-rate constant (koff) in assay [2] amounted to 0.000206 s⁻¹. Further, the values for the half-maximal effective concentration (EC50) in assay [3] and in assay [4] were 4 nM and 3.02 nM, respectively. Moreover, the “Binding to CHOK1-PD-L1 (X Geo Mean)” value in [5] was 49.7.

B4: FIT1012-3a TGFβ/PD-L1 bispecific binding protein (bispecific antibody, human IgG1, kappa)
heavy: not shown
chain: TIPPHVQKSVNNDMIVTDNNGAVKFPQLCKFCDVRFSTCDNQKSCMSNCSITSICEKPQEVCVAVWRKNDENITLETVCHDPKLPYHDFILEDAASPKCIMKEKKKPGETFFMCSCSSDECNDNIIFSEEYNTSNPDASTKGPSVFPLAPSSKSTSGGTAALGCLVKDYFPEPVTVSWNSGALTSGVHTFPAVLQSSGLYSLSSVVTVPSSSLGTQTYICNVNHKPSNTKVDKKVEPKSC
light: DIQMTQSPSSVSASVGDRVTITCKASQDVGTAVAWYQQKPGKAPKLLIYWASTRHTGVPDRFTGSGSGTDFTLTISSLQPEDFATYYCQQYSSYPYTFGGGTKVEIKRTVAAPSVFIFPPSDEQLKSGTASVVCLLNNFYPREAKVQWKVDNALQSGNSQESVTEQDSKDSTYSLSSTLTLSKADYEKHKVYACEVTHQGLSSPVTKSFNRGEC
notes: Six-chain protein; anti-PD-L1 moiety from HuEM0005-86-6 with G55A; four TGFβR2(ECD) traps
B4: the EC50 in [6] was 0.525 nM. Moreover, in assay [7], a half-maximal response (EC50) required 0.205 nM. For the same molecule, in [8], binding was put at a Kd of 0.609 nM, the koff was found to be 0.000344 s⁻¹ and the kon was 564000 M⁻¹ s⁻¹. The molecule also registered an EC50 in [9] of 0.205 nM. Also, the “EC50 (read off the curve)” value in [10] is approximately 0.4 nM.

B5: FIT1012-4a TGFβ/PD-L1 bispecific binding protein (bispecific antibody, human IgG1, kappa)
heavy: not shown
chain: B4 chain
light: not shown
notes: Six-chain protein; anti-PD-L1 moiety from HuEM0005-87-1; four TGFβR2(ECD) traps
In the case of B5, the concentration for a half-maximal effect (EC50) in assay [6] is 0.288 nM; in assay [7] it was 0.114 nM; in [9], 0.114 nM; in assay [10], 0.29 nM. The same molecule showed an equilibrium dissociation constant (Kd) in assay [8] of 1.3 nM.
